# In patent US12416034B2, “Recombinant production of steviol glycosides” (EVOLVA SA, priority 2011, dated 2025):
# B1: EUGT11: UDP glycosyl transferase from Oryza sativa (GenBank AC133334), SEQ ID NO:152 (protein, listed as Oryza sativa)
# chain: MDSGYSSSYAAAAGMHVVICPWLAFGHLLPCLDLAQRLASRGHRVSFVSTPRNISRLPPVRPALAPLVAFVALPLPRVEGLPDGAESTNDVPHDRPDMVELHRRAFDGLAAPFSEFLGTACADWVIVDVFHHWAAAAALEHKVPCAMMLLGSAHMIASIADRRLERAETESPAAAGQGRPAAAPTFEVARMKLIRTKGSSGMSLAERFSLTLSRSSLVVGRSCVEFEPETVPLLSTLRGKPITFLGLMPPLHEGRREDGEDATVRWLDAQPAKSVVYVALGSEVPLGVEKVHELALGLELAGTRFLWALRKPTGVSDADLLPAGFEERTRGRGVVATRWVPQMSILAHAAVGAFLTHCGWNSTIEGLMFGHPLIMLPIFGDQGPNARLIEAKNAGLQVARNDGDGSFDREGVAAAIRAVAVEEESSKVFQAKAKKLQEIVADMACHERYIDGFIQQLRSYKD
# Assays:
# [1] = Enzyme kinetics with RebA as substrate; format: biochemical; details: Reb A
# Experimental: A series of experiments were performed to determine kinetic parameters of EUGT11 and 91D2e-b. For both enzymes, 100 μM RebA, 300 μM UDP-glucose, and 10 U/mL Alkaline Phosphatase (Fermentas/Thermo Fisher, Waltham, MA) were used in the reactions. For EUGT11, the reactions were performed at 37° C. using 100 mM Tris-HCl, pH 7, and 2% enzyme. For 91D2e-b, the reactions were performed at 30° C. using 20 mM Hepes-NaOH, pH 7.6, 20% (by volume) enzyme. The initial velocities (V0) were calculated in the linear range of a product versus time plot.
# To first investigate the linearity intervals, initial time-courses were done for each enzyme. EUGT11 was assayed at 37° C. for 48 h at initial concentrations of 100 μM RebA and 300 μM UDP-glucose. UGT91D2e-b was assayed at 37° C. for 24 h at initial concentrations of 200 μM RebA and 600 μM UDP-glucose. Based on these range-finding studies, it was determined that the initial 10 minutes in the case of EUGT11, and the initial 20 minutes in UGT91D2e-b would be in the linear range with respect to product formation, and therefore initial velocities of each reaction were calculated in those intervals. In the case of EUGT11, RebA concentrations assayed were 30 μM, 50 μM, 100 μM, 200 μM, 300 μM and 500 μM. Concentration of UDP-glucose was always three times the concentration of RebA and incubation was performed at 37° C. By plotting the calculated V0 as a function of the substrate concentrations, Michaelis-Menten curves were generated. By plotting the reciprocal of V0 and the reciprocal of [S], a Lineweaver-Burk graphic was obtained, with y=339.85x+1.8644; R^2=0.9759.
# Vmax and KM parameters were determined from the curve-fit Lineweaver-Burk data, calculated from the x- and y intercepts (x=0, y=1/Vmax) and (y=0, x=−1/KM). Additionally, the same parameters also were calculated by a non-linear least squares regression, using the SOLVER function in Excel. The results obtained with both methods for EUGT11 and RebA are presented in Table 12, along with all the kinetic parameters of this example. Kcat is calculated based on Vmax divided by the approximate amount of protein in the assay.
# In the case of UGT91D2e-b, RebA concentrations assayed were 50 μM, 100 μM, 200 μM, 300 μM, 400 μM and 500 μM. Concentration of UDP-glucose was always three times the concentration of RebA and incubation was performed at 30° C., in the reaction conditions described above for UGT91D2e-b. Additionally, kinetic parameters of UGT91D2e-b towards UDP-glucose were determined. UGT91D2e-b was incubated with increasing amounts of UDP-glucose (30 μM, 50 μM, 100 μM, and 200 μM), maintaining an excess of RebA (1500 μM). incubation was performed at 30° C., in optimal conditions for UGT91D2e-b.
# [2] = In vitro transcribed and translated UGTs incubated with rubusoside, LC-MS; format: biochemical
# Experimental: (§1) EUGT11 was produced by in vitro transcription and translation, and incubated with various substrates in the RebD pathway. Similar experiments were carried out using in vitro transcribed and translated UGT91D2e. […] Compounds 1-3 were identified solely by mass and expected retention time. The numbers shown in FIG. 3 are the average peak height of the indicated steviol glycoside obtained from a LC-MS chromatogram, and, although not quantitative, can be used to compare the activity of the two enzymes. […] Both enzymes were able to convert steviol 19-O-monoglucoside (SMG) to compound 1, with EUGT11 being about ten times more efficient than UGT91D2e at converting 19-SMG to compound 1.
# The left panel of FIG. 5 contains LC-MS chromatograms of the conversion of rubusoside to stevioside. The right panel of FIG. 5 contains chromatograms of the conversion of rubusoside to stevioside, to compound 2, and to compound 3 (RebE). Conversion of rubusoside to compound 3 requires two consecutive 1, 2-O-glycosylations at the 19- and 13-positions of steviol.
# [3] = Stability of EUGT11: pre-incubation before RebA to RebD reaction; format: physicochemical
# Experimental: Reactions were conducted to explore the stability of EUGT11 under various RebA to RebD reaction conditions. Omitting the substrate from the reaction mixture, EUGT11 was pre-incubated for various periods of time before substrate was added. Following a pre-incubation of the enzyme in 100 mM Tris-HCl buffer, substrate (100 μM RebA) and other reaction components (300 μM UDP-glucose, and 10 U/mL Alkaline Phosphatase (Fermentas/Thermo Fisher, Waltham, MA)) were added (0, 1, 4 or 24 hours after the incubation was started). The reaction was then allowed to proceed for 20 h, after which the reactions were stopped and RebD product-formation measured. Experiments were repeated at different temperatures: 30° C., 32.7° C., 35.8° C. and 37° C.
# [4] = Limiting factor in RebA to RebD reaction; format: biochemical
# Experimental: Under the conditions described above for EUGT11, approximately 25% of the RebA administered was converted to RebD. The limiting factor in these conditions could be either the enzyme, UDP-glucose or RebA. Experiments were set up to distinguish between these possibilities. A standard assay was allowed to run its course during 4 hours. This was followed by addition of either extra RebA substrate, extra enzyme, extra UDP-glucose or extra enzyme and UDP-glucose.
# Experiments were conducted to examine the limit to this benefit of adding bolus amounts of UDP-glucose and fresh enzyme in the conversion of RebA to RebD reaction. Additional enzyme or enzyme and UDP-glucose were added after 1, 6, 24 and 28 hours. In the case of the addition of both extra EUGT11 and UDP-glucose, a conversion of more than 70% was achieved. […] Alternatively, as explained below, EUGT11 may be metabolizing the UDP-glucose.
# [5] = In vitro transcribed and translated UGTs incubated with 19-SMG, LC-MS; format: biochemical; details: average LC-MS peak height, not quantitative
# Experimental: as §1
# [6] = In vitro transcribed and translated UGTs incubated with steviol, LC-MS; format: biochemical
# Experimental: as §1
molecule,measurement,setting,value
B1,Kcat,[1]; Lineweaver-Burk plot,0.14 s⁻¹
same,Km,[1]; Lineweaver-Burk plot,182 µM
same,Vmax,[1]; Lineweaver-Burk plot,0.54 µM/min
same,Kcat,[1]; Nonlinear Least Square Fit,0.135 s⁻¹
same,Km,[1]; Nonlinear Least Square Fit,162 µM
same,Vmax,[1]; Nonlinear Least Square Fit,0.52 µM/min
same,amount of compound 3 (RebE) produced from rubusoside,[2],significant amount
same,activity after pre-incubation,"[3]; 30° C., 4 hours",not significantly reduced
same,activity remaining after pre-incubation,"[3]; 30° C., 24 hours",approximately one-third
same,activity remaining after pre-incubation,"[3]; 37° C., 1 hour",approximately half
same,activity remaining after pre-incubation,"[3]; 37° C., 4 hours",almost no activity
same,conversion of RebA to RebD,"[4]; extra EUGT11 and UDP-glucose added after 1, 6, 24 and 28 hours",more than 70%
same,RebA converted to RebD,[4]; standard conditions for EUGT11,approximately 25%
same,efficiency at converting 19-SMG to compound 1 compared with UGT91D2e,[5],about ten
same,use of steviol as a substrate,[6],not able to use steviol as a substrate
